This experiment concerns the target MCM helicase hexamer (Mcm2-7) (yeast) (UniProt P29469). The experiment is described as follows: negative-stain EM.

Drawing on paper PMC6887548, this text covers decrease of MO formation against wild type ORC for one substance.

In turn, “ORC variant lacking the N-terminal 119 amino acids of Orc6, P54784;P32833;P54790;P54791;P50874;P38826” yielded a decrease of MO formation against wild type ORC of 50%.
